Series [1] has as its system NONcNZO-10 polygenic obese mice. As to the kind of experiment: Pegylated NT-4/5 cysteine mutant on body weight, food intake, glucose, triglyceride in NONcNZO-10 mice (Example 6). It counts as in vivo. As to conditions: 2 mg/kg/week injection.
For a further series, the target named is T1, human TrkB (Homo sapiens, UniProt Q16620).
T1 construct: expressed in transfected cells
As to the kind of experiment: Receptor tyrosine phosphorylation (KIRA) in TrkB expressing cell line. It counts as cell-based. The source says:
Method of making pegylated NT-4/5 (S50C): The native form of NT-4/5 used in this study was produced according to the method described in U.S. Pat. No. 6,184,360. A site-directed pegylated NT-4/5 was also produced. The structure of NT-4/5 in complex with domain 5 of TrkB was examined to find amino acid side chains that would be surface available and unlikely to interfere with natural disulfide bonds and also unlikely to interfere in either the interactions between the monomer subunits of NT-4/5 or the TrkB domain 5 to create a PEG attaching site. […] […] Mutant proteins were expressed in E. coli, solubilized, extracted, purified and refolded as the native NT-4/5. To pegylate the refolded NT4-S50C, NT4-Q105C, and NT-4-E67C, first a mild reduction with 0.1 mM DTT (dithiothreitol) was performed. Excess DTT was removed by dialysis against 50 mM sodium acetate at pH 6, then a 5 molar excess of mPEG-maleimide (M. W. of 10,000 Da, SunBio, Inc., South Korea) was incubated with the protein at 37° C. for several days with gentle agitation. Pegylated protein, non-pegylated protein and unreacted PEG were separated via ion exchange or size exclusion chromatography.
(§1) Assays of TrkB specific activation by pegylated NT-4/5: Stable cell lines expressing human TrkA, TrkB or TrkC were used to determine the functional activity, i.e. receptor phosphorylation, of NT-4/5 and pegylated NT-4/5 as previously described (Sadick et al. Experimental Cell Research 234: 354-361, 1997).
(§2) Assays of TrkB specific activation by pegylated NT-4/5: Stable cell lines expressing human TrkA, TrkB or TrkC were used to determine the functional activity, i.e. receptor phosphorylation, of NT-4/5 and different forms of pegylated NT-4/5 as previously described (Sadick et al. Experimental Cell Research 234: 354-361, 1997).

The subject of series [2] is db/db mice. As to the kind of experiment: Daily food intake after single injection of NT-4/5 or pegylated NT-4/5 in db/db mice (Example 7, Table 22). It is filed as in vivo. The conditions noted are these: for Daily food intake: single s.c. injection 5 mg/kg, db/db mice, mean; for food intake: single subcutaneous injection, 5 mg/kg, significantly. The method, then:
(§3) Test animals: 30 female db/db mice at 7 weeks of age weighing in the range of 27-34 g were used in this study.
(§4) Administration of NT-4/5 and pegylated NT-4/5: Wild type NT-4/5 was obtained from Genentech Inc. The mice were divided into 5 groups of equivalent body weight distribution (6 mice per group). Each group received on the first day (day 1) of the study one and the only dose of either vehicle, 5 mg/kg of NT-4/5 produced as described above, 5 mg/kg of 2PEG-NT4-G1S, or 5 mg/kg of 1PEG-NT4-G1S. 2PEG-NT4-G1S represents one PEG molecule was conjugated to each NT-4/5 monomer in a NT-4/5 dimer, and 1PEG-NT4-G1S represents one PEG molecule was conjugated to only one monomer of the NT-4/5 dimer. 2PEG-NT4-G1S and 1PEG-NT4-G1S were separated by ion exchange. Four days before starting the treatment (day −4), blood samples were collected from the mice as described previously for the determination of baseline levels of serum glucose. On day 4 after the treatment started, blood samples were collected again to determine serum glucose level. Body weight and food intake were monitored 5 days a week through out the entire study.

A further series concerns the target T2, human TrkC (Homo sapiens, UniProt Q16288).
T2 construct: expressed in transfected cells
As to the kind of experiment: Receptor tyrosine phosphorylation in trkC expressing cell line. It counts as cell-based.
Excerpt: as §1, §2

A further series deals with T3, human TrkA (Homo sapiens, UniProt P04629).
T3 construct: expressed in transfected cells
T3 sequence (P04629 33-796): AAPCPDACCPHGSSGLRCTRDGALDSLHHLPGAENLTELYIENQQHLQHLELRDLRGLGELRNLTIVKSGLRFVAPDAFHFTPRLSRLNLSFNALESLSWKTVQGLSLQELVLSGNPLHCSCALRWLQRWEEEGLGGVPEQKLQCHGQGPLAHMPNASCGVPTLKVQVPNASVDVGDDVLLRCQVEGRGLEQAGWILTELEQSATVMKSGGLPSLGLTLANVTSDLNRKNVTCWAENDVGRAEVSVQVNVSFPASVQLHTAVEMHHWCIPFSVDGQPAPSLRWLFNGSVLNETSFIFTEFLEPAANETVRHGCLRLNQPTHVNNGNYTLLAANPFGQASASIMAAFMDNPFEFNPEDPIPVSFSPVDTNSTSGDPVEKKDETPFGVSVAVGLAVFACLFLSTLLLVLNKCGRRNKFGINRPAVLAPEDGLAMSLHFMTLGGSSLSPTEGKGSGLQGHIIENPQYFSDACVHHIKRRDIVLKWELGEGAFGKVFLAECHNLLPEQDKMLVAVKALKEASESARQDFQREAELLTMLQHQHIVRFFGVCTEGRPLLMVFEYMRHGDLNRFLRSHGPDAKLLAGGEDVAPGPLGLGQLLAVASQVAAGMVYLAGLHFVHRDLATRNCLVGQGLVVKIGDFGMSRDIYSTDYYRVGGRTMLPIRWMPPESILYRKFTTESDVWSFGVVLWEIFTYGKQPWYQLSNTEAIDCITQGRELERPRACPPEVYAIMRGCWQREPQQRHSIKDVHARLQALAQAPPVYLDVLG
The series can be described thus: Receptor tyrosine phosphorylation in trkA expressing cell line. It is filed as cell-based.
Excerpt: as §1, §2

Series [3] relates to db/db mice. The series can be described thus: Body weight after single injection of NT-4/5 or pegylated NT-4/5 in db/db mice (Example 7, Table 21). It counts as in vivo. The conditions noted are these: for Body weight expressed in percentage of baseline value: single 5 mg/kg dose on day 1; for body weight growth: single subcutaneous injection, 5 mg/kg, significantly. The method, then:
as §3, §4

Series [4] is described as follows: Serum half life after single subcutaneous dose in db/db mice (Example 7). It counts as in vivo. From the text: In addition, pegylated NT-4/5 has extended half life in vivo.
Series [5] relates to db/db mice. The series can be described thus: Non-fasting serum glucose after single injection in db/db mice (Example 7). It is filed as in vivo. The conditions noted are these: after 4 days; single subcutaneous injection, 5 mg/kg. The procedure:
as §3, §4

T1 sequence (Q16620 32-822): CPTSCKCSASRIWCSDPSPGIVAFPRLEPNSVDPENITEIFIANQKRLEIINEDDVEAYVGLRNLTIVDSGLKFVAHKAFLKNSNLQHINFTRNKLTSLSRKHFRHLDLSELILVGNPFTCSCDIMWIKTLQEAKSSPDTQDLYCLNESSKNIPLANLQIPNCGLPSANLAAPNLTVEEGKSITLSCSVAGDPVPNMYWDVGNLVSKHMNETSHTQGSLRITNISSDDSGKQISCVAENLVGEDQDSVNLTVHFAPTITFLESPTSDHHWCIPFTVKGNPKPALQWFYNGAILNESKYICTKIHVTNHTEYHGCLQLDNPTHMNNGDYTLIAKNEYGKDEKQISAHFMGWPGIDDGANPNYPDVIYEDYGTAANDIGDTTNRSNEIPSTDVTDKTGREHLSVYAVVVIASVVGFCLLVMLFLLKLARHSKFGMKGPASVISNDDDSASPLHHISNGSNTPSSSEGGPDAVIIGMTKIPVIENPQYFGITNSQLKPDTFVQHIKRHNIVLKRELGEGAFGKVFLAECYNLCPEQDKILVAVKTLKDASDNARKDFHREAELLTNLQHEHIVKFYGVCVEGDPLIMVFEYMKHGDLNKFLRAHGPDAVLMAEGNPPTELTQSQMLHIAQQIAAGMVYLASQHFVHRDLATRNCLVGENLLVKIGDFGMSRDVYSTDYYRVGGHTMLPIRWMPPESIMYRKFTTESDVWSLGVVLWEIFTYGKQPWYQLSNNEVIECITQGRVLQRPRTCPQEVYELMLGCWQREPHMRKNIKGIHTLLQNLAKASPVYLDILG
T2 sequence (Q16288 32-839): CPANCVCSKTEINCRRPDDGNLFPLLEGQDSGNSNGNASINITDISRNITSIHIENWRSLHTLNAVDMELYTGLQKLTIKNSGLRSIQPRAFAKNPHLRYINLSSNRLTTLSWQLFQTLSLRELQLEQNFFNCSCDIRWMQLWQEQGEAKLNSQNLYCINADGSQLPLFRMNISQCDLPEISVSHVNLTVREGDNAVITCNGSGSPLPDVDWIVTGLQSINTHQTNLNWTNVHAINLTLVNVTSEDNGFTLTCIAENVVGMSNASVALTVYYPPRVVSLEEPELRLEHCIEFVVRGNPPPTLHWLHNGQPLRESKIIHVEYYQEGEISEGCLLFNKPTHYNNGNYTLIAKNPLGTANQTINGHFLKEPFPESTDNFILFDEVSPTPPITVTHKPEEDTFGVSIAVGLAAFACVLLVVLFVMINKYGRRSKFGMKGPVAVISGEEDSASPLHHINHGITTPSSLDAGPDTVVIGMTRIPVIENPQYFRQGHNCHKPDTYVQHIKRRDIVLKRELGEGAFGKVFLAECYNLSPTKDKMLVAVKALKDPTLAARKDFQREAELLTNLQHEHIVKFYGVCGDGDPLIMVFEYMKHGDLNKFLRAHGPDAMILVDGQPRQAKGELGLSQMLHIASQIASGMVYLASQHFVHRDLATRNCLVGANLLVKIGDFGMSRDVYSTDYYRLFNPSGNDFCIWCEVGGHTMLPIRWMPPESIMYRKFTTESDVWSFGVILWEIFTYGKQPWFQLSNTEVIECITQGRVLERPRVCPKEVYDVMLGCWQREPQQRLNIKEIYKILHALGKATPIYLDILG

B1: Pegylated mutant NT-4/5 (Q105C): NT-4/5 with residue 105 changed to cysteine, pegylated with mPEG-maleimide (10,000 Da) (conjugate)
chain: GVSETAPASRRGELAVCDAVSGWVTDRRTAVDLRGREVEVLGEVPAAGGSPLRQYFFETRCKADNAEEGGPGAGGGGCRGVDRRHWVSECKAKQSYVRALTADACGRVGWRWIRIDTACVCTLLSRTGRA
Consider B1, for which the “in vivo activity (body weight, food intake, glucose or triglyceride)” value in series [1] is “inactive in vivo”. Also, the “receptor tyrosine phosphorylation of TrkB-expressing cell line” value in the series with human TrkB is listed as “preserved TrkB receptor agonist activity”.

B2: 2PEG-NT4-G1S: NT4-G1S dimer with one 20 kDa PEG molecule conjugated to each NT-4/5 monomer (conjugate)
chain: SVSETAPASRRGELAVCDAVSGWVTDRRTAVDLRGREVEVLGEVPAAGGSPLRQYFFETRCKADNAEEGGPGAGGGGCRGVDRRHWVSECKAKQSYVRALTADAQGRVGWRWIRIDTACVCTLLSRTGRA
For the molecule B2, the Daily food intake in the series on db/db mice [2] (Day 1) was found to be 6.7 g/day; in the series with db/db mice [2] (Day 2), 5.3 g/day; in the series with db/db mice [2] (Day 3), 5.8 g/day; with db/db mice [2] (Day 4), 6.2 g/day. The “food intake” value in the series on db/db mice [2] is listed as “reduced”. Besides, the “receptor tyrosine phosphorylation of trkC-expressing cell line” value with human TrkC is given as “did not increase receptor tyrosine phosphorylation”. Further, the “receptor tyrosine phosphorylation of trkA-expressing cell line” value in the series with human TrkA is “did not increase receptor tyrosine phosphorylation”. Further, the “Body weight expressed in percentage of baseline value” in the series on db/db mice [3] (Day 1) is on record as 100.0 % of baseline; with db/db mice [3] (Day 2) it was 97.3 % of baseline; with db/db mice [3] (Day 3) it was 98.4 % of baseline; in the series with db/db mice [3] (Day 4), 100.1 % of baseline. Also, the “body weight growth” value with db/db mice [3] is given as “reduced the body weight growth”. The “absolute protein levels relative to native NT-4/5” value in series [4] (at any given time point) is “several orders of magnitude higher”. Also, the serum half life in series [4] (single subcutaneous dose of 4 mg/kg in db/db mice, estimated) was 12.7 to 16 h. For the same molecule, the “receptor tyrosine phosphorylation of TrkB-expressing cell line” value with human TrkB is “increased receptor tyrosine phosphorylation”. Also, in the series with db/db mice [5], the “non-fasting serum glucose levels” value is “showed a tendency to reduce”.

B3: 1PEG-NT4-G1S: NT4-G1S dimer with one 20 kDa PEG molecule conjugated to only one monomer (conjugate)
chain 1: SVSETAPASRRGELAVCDAVSGWVTDRRTAVDLRGREVEVLGEVPAAGGSPLRQYFFETRCKADNAEEGGPGAGGGGCRGVDRRHWVSECKAKQSYVRALTADAQGRVGWRWIRIDTACVCTLLSRTGRA
chain 2: SVSETAPASRRGELAVCDAVSGWVTDRRTAVDLRGREVEVLGEVPAAGGSPLRQYFFETRCKADNAEEGGPGAGGGGCRGVDRRHWVSECKAKQSYVRALTADAQGRVGWRWIRIDTACVCTLLSRTGRA
As for B3, the Daily food intake in the series with db/db mice [2] (Day 1) amounted to 6.8 g/day; with db/db mice [2] (Day 2) it was 5.3 g/day; in the series with db/db mice [2] (Day 3), 6.7 g/day; in the series with db/db mice [2] (Day 4), 6.3 g/day. The “food intake” value in the series with db/db mice [2] is on record as “reduced”. Further, the “receptor tyrosine phosphorylation of trkC-expressing cell line” value with human TrkC was “did not increase receptor tyrosine phosphorylation”. Moreover, the “receptor tyrosine phosphorylation of trkA-expressing cell line” value with human TrkA was “did not increase receptor tyrosine phosphorylation”. The “Body weight expressed in percentage of baseline value” with db/db mice [3] (Day 1) is recorded as 100.0 % of baseline; in the series on db/db mice [3] (Day 2) it was 98.2 % of baseline; in the series with db/db mice [3] (Day 3), 100.0 % of baseline; in the series on db/db mice [3] (Day 4) it was 103.0 % of baseline. In addition, in the series with db/db mice [3], the “body weight growth” value is listed as “reduced the body weight growth”. In addition, the “receptor tyrosine phosphorylation of TrkB-expressing cell line” value with human TrkB is “increased receptor tyrosine phosphorylation”. For the same molecule, the “non-fasting serum glucose levels” value in the series on db/db mice [5] was “showed a tendency to reduce”.

These data come from patent publication US20090203610A1, “METHODS OF TREATING OBESITY OR DIABETES USING NT-4/5” (RINAT NEUROSCIENCE CORPORATION, priority 2004, published 2009).
